Source: US20220363757A1

Assays:
[1] = target: cynomolgus LAG-3 ECD human IgG1 Fc fusion (cynomolgus; human) (UniProt P18627); assay: SPR, Fab over captured LAG-3 ECD-Fc
[2] = target: human LAG-3 ECD human IgG1 Fc fusion (human) (UniProt P18627); assay: SPR, Fab over captured LAG-3 ECD-Fc
[3] = target: human LAG-3 domain 1-2 Fc fusion, chimeric construct #1 (mutated region AA 23-30) (human) (UniProt P18627); assay: SPR, Fab over captured mutant LAG-3-Fc
[4] = target: human LAG-3 domain 1-2 Fc fusion, chimeric construct #21 (mutated region AA 128-137) (human) (UniProt P18627); assay: SPR, Fab over captured mutant LAG-3-Fc
[5] = target: human LAG-3 domain 1-2 Fc fusion, chimeric construct #24 (mutated region AA 148-154) (human) (UniProt P18627); assay: SPR, Fab over captured mutant LAG-3-Fc
[6] = target: human LAG-3 domain 1-2 Fc fusion, chimeric construct #26 (mutated region AA 157-161) (human) (UniProt P18627); assay: SPR, Fab over captured mutant LAG-3-Fc
[7] = target: human LAG-3 domain 1-2 Fc fusion, point mutation #12 R57A (human) (UniProt P18627); assay: SPR, Fab over captured mutant LAG-3-Fc
Chain of human LAG-3 domain 1-2 Fc fusion, point mutation #12 R57A (human) (P18627 23-266 R57A): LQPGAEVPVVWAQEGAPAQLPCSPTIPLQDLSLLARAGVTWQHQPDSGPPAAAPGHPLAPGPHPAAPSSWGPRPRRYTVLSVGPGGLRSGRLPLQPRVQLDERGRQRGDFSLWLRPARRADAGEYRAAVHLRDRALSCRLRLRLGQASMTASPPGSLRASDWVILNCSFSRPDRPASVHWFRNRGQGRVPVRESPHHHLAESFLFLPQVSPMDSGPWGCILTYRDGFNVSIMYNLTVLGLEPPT

[8] = target: human LAG-3 domain 1-2 Fc fusion, point mutation #18 P67A (human) (UniProt P18627); assay: SPR, Fab over captured mutant LAG-3-Fc
Chain of human LAG-3 domain 1-2 Fc fusion, point mutation #18 P67A (human) (P18627 23-266 P67A): as the sequence (P18627 23-266 R57A) above, with A35R, P45A counted along it

[9] = target: human LAG-3 domain 1-2 Fc fusion, point mutation #20 A73S (human) (UniProt P18627); assay: SPR, Fab over captured mutant LAG-3-Fc
[10] = target: human LAG-3 domain 1-2 Fc fusion, point mutation #21 A74S (human) (UniProt P18627); assay: SPR, Fab over captured mutant LAG-3-Fc
[11] = target: human LAG-3 domain 1-2 Fc fusion, point mutation #23 P76A (human) (UniProt P18627); assay: SPR, Fab over captured mutant LAG-3-Fc
Chain of human LAG-3 domain 1-2 Fc fusion, point mutation #23 P76A (human) (P18627 23-266 P76A): as the sequence (P18627 23-266 R57A) above, with A35R, P54A counted along it

[12] = target: human LAG-3 domain 1-2 Fc fusion, point mutation #26 P79A (human) (UniProt P18627); assay: SPR, Fab over captured mutant LAG-3-Fc
Chain of human LAG-3 domain 1-2 Fc fusion, point mutation #26 P79A (human) (P18627 23-266 P79A): as the sequence (P18627 23-266 R57A) above, with A35R, P57A counted along it

[13] = target: human LAG-3 domain 1-2 Fc fusion, point mutation #28 A81S (human) (UniProt P18627); assay: SPR, Fab over captured mutant LAG-3-Fc
[14] = target: human LAG-3 domain 1-2 Fc fusion, point mutation #29 P82A (human) (UniProt P18627); assay: SPR, Fab over captured mutant LAG-3-Fc
[15] = target: human LAG-3 domain 1-2 Fc fusion, point mutation #32 H85A (human) (UniProt P18627); assay: SPR, Fab over captured mutant LAG-3-Fc
Chain of human LAG-3 domain 1-2 Fc fusion, point mutation #32 H85A (human) (P18627 23-266 H85A): as the sequence (P18627 23-266 R57A) above, with A35R, H63A counted along it

[16] = target: human LAG-3 domain 1-2 Fc fusion, point mutation #35 A88S (human) (UniProt P18627); assay: SPR, Fab over captured mutant LAG-3-Fc
[17] = target: human LAG-3 domain 1-2 Fc fusion, point mutation #37 S90A (human) (UniProt P18627); assay: SPR, Fab over captured mutant LAG-3-Fc
[18] = target: human LAG-3 domain 1-2 Fc fusion, point mutation #38 S91A (human) (UniProt P18627); assay: SPR, Fab over captured mutant LAG-3-Fc
Chain of human LAG-3 domain 1-2 Fc fusion, point mutation #38 S91A (human) (P18627 23-266 S91A): as the sequence (P18627 23-266 R57A) above, with A35R, S69A counted along it

[19] = target: human LAG-3 domain 1-2 Fc fusion, point mutation #41 P94A (human) (UniProt P18627); assay: SPR, Fab over captured mutant LAG-3-Fc
Chain of human LAG-3 domain 1-2 Fc fusion, point mutation #41 P94A (human) (P18627 23-266 P94A): as the sequence (P18627 23-266 R57A) above, with A35R, P72A counted along it

[20] = target: human LAG-3 domain 1-2 Fc fusion, point mutation #43 P96A (human) (UniProt P18627); assay: SPR, Fab over captured mutant LAG-3-Fc
Chain of human LAG-3 domain 1-2 Fc fusion, point mutation #43 P96A (human) (P18627 23-266 P96A): as the sequence (P18627 23-266 R57A) above, with A35R, P74A counted along it

[21] = target: human LAG-3 domain 1-2 Fc fusion, point mutation #45 R98A (human) (UniProt P18627); assay: SPR, Fab over captured mutant LAG-3-Fc
Chain of human LAG-3 domain 1-2 Fc fusion, point mutation #45 R98A (human) (P18627 23-266 R98A): as the sequence (P18627 23-266 R57A) above, with A35R, R76A counted along it

[22] = target: human LAG-3 domain 1-2 Fc fusion, point mutation #47 T100A (human) (UniProt P18627); assay: SPR, Fab over captured mutant LAG-3-Fc
Chain of human LAG-3 domain 1-2 Fc fusion, point mutation #47 T100A (human) (P18627 23-266 T100A): as the sequence (P18627 23-266 R57A) above, with A35R, T78A counted along it

[23] = target: human LAG-3 domain 1-2 Fc fusion, point mutation #49 G105A (human) (UniProt P18627); assay: SPR, Fab over captured mutant LAG-3-Fc
Chain of human LAG-3 domain 1-2 Fc fusion, point mutation #49 G105A (human) (P18627 23-266 G105A): as the sequence (P18627 23-266 R57A) above, with A35R, G83A counted along it

[24] = target: human LAG-3 domain 1-2 Fc fusion, point mutation #52 G108A (human) (UniProt P18627); assay: SPR, Fab over captured mutant LAG-3-Fc
Chain of human LAG-3 domain 1-2 Fc fusion, point mutation #52 G108A (human) (P18627 23-266 G108A): as the sequence (P18627 23-266 R57A) above, with A35R, G86A counted along it

[25] = target: human LAG-3 domain 1-2 Fc fusion, point mutation #58 P115A (human) (UniProt P18627); assay: SPR, Fab over captured mutant LAG-3-Fc
Chain of human LAG-3 domain 1-2 Fc fusion, point mutation #58 P115A (human) (P18627 23-266 P115A): as the sequence (P18627 23-266 R57A) above, with A35R, P93A counted along it

[26] = target: human LAG-3 domain 1-2 Fc fusion, point mutation #59 Q117A (human) (UniProt P18627); assay: SPR, Fab over captured mutant LAG-3-Fc
Chain of human LAG-3 domain 1-2 Fc fusion, point mutation #59 Q117A (human) (P18627 23-266 Q117A): as the sequence (P18627 23-266 R57A) above, with A35R, Q95A counted along it

[27] = target: human LAG-3 domain 1-2 Fc fusion, point mutation #60 P118A (human) (UniProt P18627); assay: SPR, Fab over captured mutant LAG-3-Fc
Chain of human LAG-3 domain 1-2 Fc fusion, point mutation #60 P118A (human) (P18627 23-266 P118A): as the sequence (P18627 23-266 R57A) above, with A35R, P96A counted along it

[28] = target: human LAG-3 domain 1-2 Fc fusion, point mutation #63 D123A (human) (UniProt P18627); assay: SPR, Fab over captured mutant LAG-3-Fc
[29] = target: human LAG-3 domain 1-2 Fc fusion, point mutation #7 P49A (human) (UniProt P18627); assay: SPR, Fab over captured mutant LAG-3-Fc
[30] = target: human LAG-3 domain 1-2 Fc fusion, point mutation #72 S133A (human) (UniProt P18627); assay: SPR, Fab over captured mutant LAG-3-Fc
[31] = target: human LAG-3 domain 1-2 Fc fusion, point mutation #74 P138A (human) (UniProt P18627); assay: SPR, Fab over captured mutant LAG-3-Fc
[32] = target: human LAG-3 domain 1-2 Fc fusion, point mutation #75 R141A (human) (UniProt P18627); assay: SPR, Fab over captured mutant LAG-3-Fc
Chain of human LAG-3 domain 1-2 Fc fusion, point mutation #75 R141A (human) (P18627 23-266 R141A): as the sequence (P18627 23-266 R57A) above, with A35R, R119A counted along it

[33] = target: human LAG-3 domain 1-2 Fc fusion, point mutation #77 R148A (human) (UniProt P18627); assay: SPR, Fab over captured mutant LAG-3-Fc

Chain of cynomolgus LAG-3 ECD human IgG1 Fc fusion (cynomolgus; human) (P18627 other isoform, or with tags, fused parts or gaps, form in doubt): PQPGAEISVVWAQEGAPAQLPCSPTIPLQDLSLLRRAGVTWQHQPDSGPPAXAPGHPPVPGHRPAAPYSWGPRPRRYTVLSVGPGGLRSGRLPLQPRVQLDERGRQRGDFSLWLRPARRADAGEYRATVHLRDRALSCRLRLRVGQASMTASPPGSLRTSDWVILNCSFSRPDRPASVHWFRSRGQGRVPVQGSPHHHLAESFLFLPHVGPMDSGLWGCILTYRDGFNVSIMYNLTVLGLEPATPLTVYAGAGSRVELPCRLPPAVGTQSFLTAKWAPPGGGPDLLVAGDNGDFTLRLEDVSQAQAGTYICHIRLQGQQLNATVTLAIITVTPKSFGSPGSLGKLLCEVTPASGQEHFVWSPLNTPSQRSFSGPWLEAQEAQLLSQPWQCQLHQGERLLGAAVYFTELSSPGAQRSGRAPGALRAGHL
Chain of human LAG-3 ECD human IgG1 Fc fusion (human) (P18627 23-450): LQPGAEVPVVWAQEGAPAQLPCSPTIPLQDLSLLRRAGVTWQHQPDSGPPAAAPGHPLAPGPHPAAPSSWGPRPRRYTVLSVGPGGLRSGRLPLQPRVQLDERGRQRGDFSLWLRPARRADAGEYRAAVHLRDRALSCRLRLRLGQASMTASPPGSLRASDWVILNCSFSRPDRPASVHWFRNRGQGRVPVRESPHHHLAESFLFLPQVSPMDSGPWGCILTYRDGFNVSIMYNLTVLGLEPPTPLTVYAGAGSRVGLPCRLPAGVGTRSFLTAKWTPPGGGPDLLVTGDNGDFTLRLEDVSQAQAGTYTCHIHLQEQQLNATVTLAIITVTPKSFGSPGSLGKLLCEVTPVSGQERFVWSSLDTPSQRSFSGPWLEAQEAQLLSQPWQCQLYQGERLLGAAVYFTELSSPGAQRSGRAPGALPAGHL

Kd [1]: 910 nM
koff [1]: 0.0038 s⁻¹
kon [1]: 4200 M⁻¹ s⁻¹
Kd [2]: 8.5 nM
koff [2]: 0.0012 s⁻¹
kon [2]: 140000 M⁻¹ s⁻¹
KD mutant/KD wild type [3]: 1.3 fold
KD mutant/KD wild type [4]: 1.4 fold
KD mutant/KD wild type [5]: 0.7 fold
KD mutant/KD wild type [6]: 0.9 fold
KD mutant/KD wild type [7]: 0.7 fold
KD mutant/KD wild type [8]: 1.1 fold
KD mutant/KD wild type [9]: 0.8 fold
KD mutant/KD wild type [10]: 0.9 fold
KD mutant/KD wild type [11]: 0.9 fold
KD mutant/KD wild type [12]: 0.8 fold
KD mutant/KD wild type [13]: 0.7 fold
KD mutant/KD wild type [14]: 0.9 fold
KD mutant/KD wild type [15]: 14.1 fold
KD mutant/KD wild type [16]: 3.5 fold
KD mutant/KD wild type [17]: 1 fold
KD mutant/KD wild type [18]: 2.2 fold
KD mutant/KD wild type [19]: 0.8 fold
KD mutant/KD wild type [20]: 0.7 fold
KD mutant/KD wild type [21]: 0.9 fold
KD mutant/KD wild type [22]: 1.2 fold
KD mutant/KD wild type [23]: 1 fold
KD mutant/KD wild type [24]: 0.9 fold
KD mutant/KD wild type [25]: 1 fold
KD mutant/KD wild type [26]: 0.8 fold
KD mutant/KD wild type [27]: 0.8 fold
KD mutant/KD wild type [28]: 1 fold
KD mutant/KD wild type [29]: 1.1 fold
KD mutant/KD wild type [30]: 1.1 fold
KD mutant/KD wild type [31]: 1 fold
KD mutant/KD wild type [32]: 0.8 fold
KD mutant/KD wild type [33]: 1.2 fold
Substance: Fab fragment of 25F7-Lag3.5 analogue
